# Paper PMC2799296 (Biochemistry, 2009)
# Biological target: the molecule itself
# Experiment: cryo-EM structure
protein,measurement,value
"bacteriophage Qβ coat protein, wild-type (133 amino acids, lacking the A1 extension) (natural protein) MAKLETVTLGNIGKDGKQTLVLNPRGVNPTNGVASLSQAGAVPALEKRVTVSVSQPSRNRKNYKVQVKIQNPTACTANGSCDPSVTRQAYADVTFSFTQYSTDEERAFVRTELAALLASPLLIDAIDQLNPAY",binding result,binds
